Measurements taken from US20100196385A1 (AstraZeneca / MedImmune, published 2010).

T1: human Dll1 (human, UniProt O00548 18-723)
T1 construct: whole, on cells
T1 sequence (looked up): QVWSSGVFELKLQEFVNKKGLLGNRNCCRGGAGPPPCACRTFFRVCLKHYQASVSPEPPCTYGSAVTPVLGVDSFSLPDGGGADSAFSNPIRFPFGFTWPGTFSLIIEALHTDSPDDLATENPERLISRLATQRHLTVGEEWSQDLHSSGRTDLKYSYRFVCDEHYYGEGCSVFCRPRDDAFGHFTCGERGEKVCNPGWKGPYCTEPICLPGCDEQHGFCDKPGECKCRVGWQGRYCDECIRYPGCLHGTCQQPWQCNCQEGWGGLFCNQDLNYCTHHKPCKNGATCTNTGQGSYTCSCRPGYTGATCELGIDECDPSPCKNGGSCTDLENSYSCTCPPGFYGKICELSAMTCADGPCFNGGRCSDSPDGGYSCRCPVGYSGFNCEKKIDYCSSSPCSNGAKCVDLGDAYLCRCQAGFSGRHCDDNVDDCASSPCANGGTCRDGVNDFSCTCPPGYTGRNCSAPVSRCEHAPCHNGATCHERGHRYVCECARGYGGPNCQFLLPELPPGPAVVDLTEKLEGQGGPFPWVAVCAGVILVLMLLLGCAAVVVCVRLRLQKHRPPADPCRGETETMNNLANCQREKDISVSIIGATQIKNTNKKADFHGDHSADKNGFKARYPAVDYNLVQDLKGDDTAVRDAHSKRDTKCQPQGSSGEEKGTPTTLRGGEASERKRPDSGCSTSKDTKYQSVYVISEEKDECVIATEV


Experiments:
[1] = target: DLL4 extracellular domain (R&D systems, catalog #1506-D4/CF) (UniProt Q9NR61 27-529, limits assumed); test: cell-based or functional assay
human Dll1 [2] = target: T1, human Dll1; test: FACS, 15 µg/ml, 293T cells with human Dll1
Method: (§1) The ability of the purified antibodies to bind to human Jagged1 and Dll1 was determined by FACS analysis. […] Cells were resuspended in PBS containing 2% FCS and seeded at 50000 cells/well into V-bottomed plates. Anti-DLL4 antibodies diluted in PBS containing 2% FCS were added at a final concentration of 5 or 15 μg/ml and plates were incubated for 1 h at 4° C. […] Data was analyzed by comparing the shift in geometric mean fluorescence in the mock-transfected cells to that observed in the Jagged1- or Dll1-transfected cells and is shown in Tables 16 and 17.

human Jagged1 [3] = target: T2, human Jagged1 (human, UniProt P78504 34-1218); test: FACS, 5 µg/ml, 293T cells with human Jagged1
T2 construct: whole, on cells
Method: as §1

human Dll1 [4] = target: T1, human Dll1; test: FACS, 15 µg/ml, 293T cells with human Dll1 vs mock
Method: as §1

human Jagged1 [5] = target: T2, human Jagged1; test: FACS, 5 µg/ml, 293T cells with human Jagged1 vs mock
Method: as §1

full length human DLL4 [6] = target: T3, full length human DLL4 (human, UniProt Q9NR61 27-685); test: FMAT, hybridoma supernatant, 293T cells with human DLL4
T3 construct: whole, on cells; also called native DLL4 expressed in HEK293 cells
Method: (§2) Cells diluted in PBS containing 2% FBS were seeded at a density of 3000 expressing and 15000 mock transfected cells per well in 384 well plates (Corning Costar, catalog #3712). Immediately after plating, 15 or 20 μl/well of hybridoma supernatants and 10 μl/well of secondary antibody (Goat anti-human IgG Fc Cy5, final concentration 750 ng/ml) were added and plates incubated for 3 h at room temperature prior to reading the fluorescence on the FMAT 8200 instrument (Applied Biosystems). The binding of human Notch1/Fc chimera (R&D systems, catalog #3647-TK), diluted 1:2 from 2.86 μg/ml was used as a positive control for DLL4 and human Notch3/Fc chimera diluted from 10 μg/ml was used a positive control for binding to Jagged1. Results for 12 hybridoma supernatants showing binding of hybridoma supernatants to human/cynomolgus monkey DLL4 and human Jagged are shown in Table 3.

human Jagged1 [7] = target: T2, human Jagged1; test: FMAT, hybridoma supernatant, 293T cells with human Jagged1
Method: as §2

full length human DLL4 [8] = target: T3, full length human DLL4; test: FMAT competition, supernatant vs Alexa-647 human Notch1/Fc, 293T cells with human DLL4
Method: Transfected and untransfected 239T cells were reconstituted in PBS containing 2% FCS and 5000 transfected and 17500 non-transfected cells were plated in 20 μl into wells of a 384-well tissue culture plate (Corning Costar, catalog #3712). Subsequently, 20 μl of hybridoma supernatant was added and plates were incubated at 4° C. for 1 h, at which time 20 μl of Alexa-647 labeled human Notch1/Fc was added at a final concentration of 6.7 ng/ml. After a further 3 h incubation at 4° C., the amount of bound Notch1/Fc was determined by reading the fluorescence in each well using an FMAT 8200 instrument (Applied Biosystems). Results are expressed as % inhibitions with the minimum inhibition in the assay being determined by the effects of non-DLL4 binding supernatants prepared in a similar way as described in example 2, and the maximum inhibition being defined as the signal obtained in the presence of a saturating concentration of unlabeled Notch1/Fc. N.T.=not tested

full length human DLL4 [9] = target: T3, full length human DLL4; test: FMAT competition, purified antibody vs Alexa-647 human Notch1/Fc, 293T cells with human DLL4
Method: To discriminate between the purified antibodies based upon their ability to prevent the interaction between full-length recombinant DLL4 and soluble Notch1/Fc, the following assays were performed. Transfected and untransfected 239T cells were reconstituted in PBS containing 2% FCS and 5000 transfected and 17500 non-transfected cells were plated in 30 μl into wells of a 384-well tissue culture plate (Corning Costar, catalog #3712). Subsequently, 30 μl of purified antibodies, serial diluted from 5 μg/ml hybridoma supernatant was added and plates were incubated at 4° C. for 1 h, at which time 20 μl of 100 ng/ml Alexa-647 labeled human Notch1/Fc was added. After a further 3 h incubation at 4° C., the amount of bound Notch1/Fc was determined by reading the fluorescence in each well using an FMAT 8200 instrument (Applied Biosystems).

T2 sequence (P78504 34-1218): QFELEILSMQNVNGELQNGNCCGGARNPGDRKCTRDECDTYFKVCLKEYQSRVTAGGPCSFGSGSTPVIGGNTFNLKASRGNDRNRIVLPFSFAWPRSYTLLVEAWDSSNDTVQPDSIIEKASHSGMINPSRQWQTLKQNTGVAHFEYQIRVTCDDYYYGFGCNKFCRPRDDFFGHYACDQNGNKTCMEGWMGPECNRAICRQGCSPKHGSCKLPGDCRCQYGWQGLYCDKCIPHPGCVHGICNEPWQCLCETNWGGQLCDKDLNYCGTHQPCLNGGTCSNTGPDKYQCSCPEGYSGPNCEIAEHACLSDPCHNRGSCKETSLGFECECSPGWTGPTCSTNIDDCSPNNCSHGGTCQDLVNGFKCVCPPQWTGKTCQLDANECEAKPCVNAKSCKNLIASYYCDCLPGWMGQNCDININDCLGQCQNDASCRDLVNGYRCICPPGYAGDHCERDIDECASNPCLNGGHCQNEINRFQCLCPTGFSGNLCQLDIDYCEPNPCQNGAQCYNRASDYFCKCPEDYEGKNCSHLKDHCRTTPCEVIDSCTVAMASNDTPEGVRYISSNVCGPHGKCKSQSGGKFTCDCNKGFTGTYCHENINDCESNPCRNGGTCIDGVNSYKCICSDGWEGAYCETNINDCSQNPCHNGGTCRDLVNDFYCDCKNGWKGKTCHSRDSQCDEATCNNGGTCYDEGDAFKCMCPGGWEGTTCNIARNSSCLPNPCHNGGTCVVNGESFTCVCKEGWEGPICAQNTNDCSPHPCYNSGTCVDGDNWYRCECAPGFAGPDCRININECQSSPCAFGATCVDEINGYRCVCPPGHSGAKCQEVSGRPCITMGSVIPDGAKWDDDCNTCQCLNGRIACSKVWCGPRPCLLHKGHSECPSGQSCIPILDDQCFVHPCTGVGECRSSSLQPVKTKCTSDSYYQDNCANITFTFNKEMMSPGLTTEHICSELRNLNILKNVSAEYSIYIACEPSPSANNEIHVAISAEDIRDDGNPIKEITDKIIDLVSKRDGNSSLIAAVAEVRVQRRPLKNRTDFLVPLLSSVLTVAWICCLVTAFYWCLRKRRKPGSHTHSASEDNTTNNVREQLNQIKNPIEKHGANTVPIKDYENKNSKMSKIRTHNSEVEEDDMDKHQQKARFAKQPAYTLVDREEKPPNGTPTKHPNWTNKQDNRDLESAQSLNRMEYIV
Chain of DLL4 extracellular domain (R&D systems, catalog #1506-D4/CF) (Q9NR61 27-529 limits assumed): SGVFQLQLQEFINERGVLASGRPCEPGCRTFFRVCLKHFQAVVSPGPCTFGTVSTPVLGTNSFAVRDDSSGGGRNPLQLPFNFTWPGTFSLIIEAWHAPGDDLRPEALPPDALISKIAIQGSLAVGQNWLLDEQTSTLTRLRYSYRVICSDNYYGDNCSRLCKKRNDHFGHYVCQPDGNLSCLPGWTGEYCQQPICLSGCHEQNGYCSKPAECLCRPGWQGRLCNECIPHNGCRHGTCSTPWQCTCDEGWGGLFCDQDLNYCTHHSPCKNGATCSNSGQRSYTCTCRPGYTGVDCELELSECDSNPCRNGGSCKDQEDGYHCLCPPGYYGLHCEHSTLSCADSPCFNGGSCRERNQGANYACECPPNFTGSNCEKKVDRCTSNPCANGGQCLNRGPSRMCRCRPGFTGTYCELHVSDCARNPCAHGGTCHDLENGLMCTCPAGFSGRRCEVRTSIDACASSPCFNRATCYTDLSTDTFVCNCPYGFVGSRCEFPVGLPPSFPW
T3 sequence (Q9NR61 27-685): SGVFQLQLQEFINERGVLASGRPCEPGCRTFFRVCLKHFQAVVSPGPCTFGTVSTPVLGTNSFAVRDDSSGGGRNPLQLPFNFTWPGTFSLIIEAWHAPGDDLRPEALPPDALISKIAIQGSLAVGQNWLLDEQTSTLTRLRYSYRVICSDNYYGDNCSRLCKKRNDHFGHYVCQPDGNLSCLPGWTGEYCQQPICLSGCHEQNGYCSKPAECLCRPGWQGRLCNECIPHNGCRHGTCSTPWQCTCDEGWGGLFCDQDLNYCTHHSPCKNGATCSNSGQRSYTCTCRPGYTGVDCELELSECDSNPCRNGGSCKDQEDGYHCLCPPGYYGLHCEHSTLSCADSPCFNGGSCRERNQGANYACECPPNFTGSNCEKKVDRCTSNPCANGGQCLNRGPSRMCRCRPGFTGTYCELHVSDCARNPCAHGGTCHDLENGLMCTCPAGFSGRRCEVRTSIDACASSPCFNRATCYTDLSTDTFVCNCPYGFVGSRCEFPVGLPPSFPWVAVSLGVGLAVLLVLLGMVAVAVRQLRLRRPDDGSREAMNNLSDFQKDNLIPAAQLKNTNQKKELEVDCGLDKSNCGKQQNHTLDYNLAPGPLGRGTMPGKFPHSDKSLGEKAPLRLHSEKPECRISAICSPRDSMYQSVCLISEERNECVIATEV

Binder	% inhibition 1 µg/ml, AVERAGE (HUVEC proliferation on coated DLL4) [1] [%]	% inhibition 1 µg/ml, N = 1 (HUVEC proliferation on coated DLL4) [1] [%]	% inhibition 1 µg/ml, N = 2 (HUVEC proliferation on coated DLL4) [1] [%]	% inhibition 10 µg/ml, AVERAGE (HUVEC proliferation on coated DLL4) [1] [%]	% inhibition 10 µg/ml, N = 1 (HUVEC proliferation on coated DLL4) [1] [%]	% inhibition 10 µg/ml, N = 2 (HUVEC proliferation on coated DLL4) [1] [%]	Dll1/293T X Geo mean (human Dll1 [2])	Jagged1/293T X Geo mean (human Jagged1 [3])	Dll1/mock ratio (human Dll1 [4])	Jagged1/mock ratio (human Jagged1 [5])	Count (full length human DLL4 [6])	FL1 (full length human DLL4 [6])	FL1 x count (full length human DLL4 [6])	Count (human Jagged1 [7])	FL1 (human Jagged1 [7])	FL1 x count (human Jagged1 [7])	% inhibition n = 1 (full length human DLL4 [8]) [%]	% inhibition n = 2 (full length human DLL4 [8]) [%]	% inhibition n = 3 (full length human DLL4 [8]) [%]	Mean % inhibition (full length human DLL4 [8]) [%]	further results
1E4 (antibody, IgG2, V domains shown, Fully human; also used where no isotype is printed) VH: QVQLVESGGGVVQPGRSLRLSCAASGFTFSSYGMHWVRQAPGKGLEWVAVTWYDGSNKYYADSVKGRFTISRDNSKNTLYLQMNSLRAEDTAVYYCARENCSSTSCYYTVTTDYYGMDVWGQGTTVTVSS VL: EIVLTQSPGTLSLSPGERATLSCRASQRVSSSYLTWYQQKPGQAPRLLIYGASIRATGIPDRFSGSGSGTDFTLTITRLEPEDFAVYFCQQCYTSPITFGQGTRLDIK	74	73	75	82	81	82	31.7	16.9	1.15	1.13	206	10400	2.14e+06	2	8020	16000	98	99	113	110	% inhibition at 0.020 nM (full length human DLL4 [9]): -7%; % inhibition at 0.070 nM (full length human DLL4 [9]): 24%; % inhibition at 0.21 nM (full length human DLL4 [9]): 21%; % inhibition at 0.62 nM (full length human DLL4 [9]): 46%; % inhibition at 1.9 nM (full length human DLL4 [9]): 91%; % inhibition at 5.6 nM (full length human DLL4 [9]): 129%; % inhibition at 16.7 nM (full length human DLL4 [9]): 120%; IC50 (full length human DLL4 [9]): 0.99 nM
3A7 (antibody, IgG4, V domains shown, Fully human; also used where no isotype is printed) VH: EVQVVESGGGLVQPGGSLRLSCEASGFTFSNYWMIWVRQAPGKGLEWVASIKEDGSEKYYVDSVKGRFTISRDNAKSSLYLQMNSLRAEDTAVYYCVRDWELRGHYYYHGMDVWGQGTTVTVSS VL: DIQMTQSPSSLSASVGDRVTITCRASLDIRNDLGWFLQKPGKAPKRLIYAASSLQSGVPSRFSGSGSGTEFTLTINSLQPEDFATYYCLQHRNYPFTFGPGTKVDFK	65	50	80	90	74	106	36.8	16.4	1.06	1.1	166	9470	1.57e+06	1	1940	1940	105	120	142	122	% inhibition at 0.020 nM (full length human DLL4 [9]): -1%; % inhibition at 0.070 nM (full length human DLL4 [9]): 7%; % inhibition at 0.21 nM (full length human DLL4 [9]): -1%; % inhibition at 0.62 nM (full length human DLL4 [9]): 19%; % inhibition at 1.9 nM (full length human DLL4 [9]): 39%; % inhibition at 5.6 nM (full length human DLL4 [9]): 82%; % inhibition at 16.7 nM (full length human DLL4 [9]): 104%; IC50 (full length human DLL4 [9]): 2.94 nM
1D4 (antibody, IgG4, V domains shown, Fully human XenoMouse antibody; also used where no isotype is printed) VH: QLQLQESGPGLVKPSETLSLTCTVSGGSISSSSYYWGWIRQPPGKGLEWIGSFYYSRSTYYNPSLKSRVTISVDTSKNQFSLKLSSVTAADTAVHYCARGSIAVPDAFDIWGQGTMVTVSS VL: SYELTQPPSVSVSPGQTASITCSGDKLGDKFACWYQQKPGHSPVLVVYQDNKRPSGIPERFSGSNSGNSATLTISGTQAMDEADYYCQAWDSNTAVFGGGTKLTVL	45	43	46	72	73	71	35.3	16.8	1.09	1.01	196	10600	2.08e+06	23	3250	74800	105	71	146	107	% inhibition at 0.020 nM (full length human DLL4 [9]): 7%; % inhibition at 0.070 nM (full length human DLL4 [9]): -2%; % inhibition at 0.21 nM (full length human DLL4 [9]): 5%; % inhibition at 0.62 nM (full length human DLL4 [9]): 13%; % inhibition at 1.9 nM (full length human DLL4 [9]): 58%; % inhibition at 5.6 nM (full length human DLL4 [9]): 124%; % inhibition at 16.7 nM (full length human DLL4 [9]): 123%; IC50 (full length human DLL4 [9]): 2 nM
